Test results as given in patent US20020098189A1 (AstraZeneca / MedImmune, published 2002).

Tests used:
[1] = biological target: T1, C-terminal truncated RSV F protein, secreted from recombinant baculovirus-infected cells (respiratory syncytial virus (strain not …, UniProt P03420 26-526)); experiment: SPR (BIAcore), F protein immobilized, Fab injected
T1 construct: also called F antigen of RSV
Method: A typical kinetic study involved the injection of 35 ml of Mab at varying concentrations (25-300 nM) in PBS buffer containing 0.05% Tween-20 (PBS/Tween). The flow rate was maintained at 5 ml/min, giving a 7 min binding phase. Following the injection of Mab, the flow was exchanged with PBS/Tween buffer for 30 min for determining the rate of dissociation. The sensor chip was regenerated between cycles with a 2 min pulse of 10 mM HCI.
More specifically, for measurement of kassoc (or kₒₙ), F protein was directly immobilized by the EDC/NHS method (EDC=N-ethyl-N′-[3-diethylaminopropyl)-carbodiimide). Briefly, 4 μg/ml of F protein in 10 mM NaOAc, pH 4.0 was prepared and about a 30 μl injection gives about 500 RU (response units) of immobilized F protein under the above referenced conditions. The blank flow cell (VnR immobilized-CM dextran surface) was subtracted for kinetic analysis. The column could be regenerated using 100 mM HCI (with 72 seconds of contact time being required for full regeneration). […] The dissociation phase was analyzed from 230 seconds (30 seconds after start of the dissociation phase) to 900 seconds. Kinetics were analyzed by 1:1 Langmuir fitting (global fitting). Measurements were done in HBS-EP buffer (10 mM HEPES, pH 7.4, 150 mM NaCl, 3 mM EDTA, 0.005% (v/v) Surfactant P20.
For measuring k_{off (or k}dissoc) the following conditions were employed. Briefly, 4100 RU of F protein were immobilized (as above) with CM-dextran used as the blank. Here, 3000 RU of Fab was bound (with dissociated Fab high enough to offset machine fluctuation). […] The dissociation phase was 6-15 hours at a flow rate of 5 μl/min.

[2] = biological target: T2, F protein of respiratory syncytial virus (RSV-Long strain), on infectious virus (respiratory syncytial virus (RSV-Long …, UniProt P12568 26-574)); experiment: cell-based or functional assay
[3] = biological target: T2, F protein of respiratory syncytial …; experiment: cell-based or functional assay; remark: listed apart in the source
[4] = biological target: T1, C-terminal truncated RSV F protein, …; experiment: SPR (BIAcore), F protein immobilized, whole antibody injected

T1 sequence (P03420 26-526): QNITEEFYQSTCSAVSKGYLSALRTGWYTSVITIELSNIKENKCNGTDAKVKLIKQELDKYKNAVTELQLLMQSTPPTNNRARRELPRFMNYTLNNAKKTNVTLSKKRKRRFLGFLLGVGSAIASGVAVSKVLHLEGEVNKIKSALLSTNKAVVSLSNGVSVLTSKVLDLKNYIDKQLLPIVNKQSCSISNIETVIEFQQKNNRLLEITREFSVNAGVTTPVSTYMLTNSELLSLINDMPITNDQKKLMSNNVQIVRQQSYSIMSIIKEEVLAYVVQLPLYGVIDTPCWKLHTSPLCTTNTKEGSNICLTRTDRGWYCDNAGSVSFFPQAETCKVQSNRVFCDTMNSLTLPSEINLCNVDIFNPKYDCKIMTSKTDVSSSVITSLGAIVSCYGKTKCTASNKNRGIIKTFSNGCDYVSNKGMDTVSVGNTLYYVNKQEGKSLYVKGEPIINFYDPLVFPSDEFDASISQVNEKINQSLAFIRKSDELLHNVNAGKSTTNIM

Binder	koff [1] [s⁻¹]	kon [1] [M⁻¹ s⁻¹]	EC50 (nM), RSV microneutralization [2] [nM]	Mean IC50 µg/ml, RSV microneutralization [3] [µg/mL]	Mean IC50 (Control) µg/ml, RSV microneutralization [3] [µg/mL]	koff [4] [s⁻¹]	kon [4] [M⁻¹ s⁻¹]
Clone 7 (Fab) (Fab, V domains shown) VH: QVTLRESGPALVKPTQTLTLTCTFSGFSLSTAGMSVGWIRQPPGKALEWLADIWWDDKKDYNPSLKSRLTISKDTSKNQVVLKVTNMDPADTATYYCARDMITNFYFDVWGQGTTVTVSS VL: DIQMTQSPSTLSASVGDRVTITCSASSRVGYMHWYQQKPGKAPKLLIYDTFKLASGVPSRFSGSGSGTEFTLTISSLQPDDFATYYCFQGSGYPFTFGGGTKVEIK	0.000251	370000	1.59				
Clone 15 (Fab) (Fab, V domains shown) VH: QVTLRESGPALVKPTQTLTLTCTFSGFSLSTAGMSVGWIRQPPGKALEWLADIWWDGKKSYNPSLKDRLTISKDTSKNQVVLKVTNMDPADTATYYCARDMIFNFYFDVWGQGTTVTVSS VL: DIQMTQSPSTLSASVGDRVTITCSLSSRVGYMHWYQQKPGKAPKLLIYDTMYQSSGVPSRFSGSGSGTEFTLTISSLQPDDFATYYCFQGSGYPFTFGGGTKVEIK	0.00028	781000	0.56	0.0264	0.0258		
Clone 9 (Fab) (Fab, V domains shown) VH: QVTLRESGPALVKPTQTLTLTCTFSGFSLSTPGMSVGWIRQPPGKALEWLADIWWDDKKHYNPSLKDRLTISKDTSKNQVVLKVTNMDPADTATYYCARDMIFNFYFDVWGQGTTVTVSS VL: DIQMTQSPSTLSASVGDRVTITCSLSSRVGYMHWYQQKPGKAPKLLIYDTFYLSSGVPSRFSGSGSGTEFTLTISSLQPDDFATYYCFQGSGYPFTFGGGTKVEIK	0.000282	663000	0.29	0.0407	0.0326		
Clone 10 (Fab) (Fab, V domains shown) VH: QVTLRESGPALVKPTQTLTLTCTFSGFSLSTPGMSVGWIRQPPGKALEWLADIWWDGKKHYNPSLKDRLTISKDTSKNQVVLKVTNMDPADTATYYCARDMIFNFYFDVWGQGTTVTVSS VL: DIQMTQSPSTLSASVGDRVTITCSLSSRVGYMHWYQQKPGKAPKLLIYDTRGLPSGVPSRFSGSGSGTEFTLTISSLQPDDFATYYCFQGSGYPFTFGGGTKVEIK	0.000299	527000	1.06	0.0464	0.0351		
Clone 13 (Fab) (Fab, V domains shown) VH: QVTLRESGPALVKPTQTLTLTCTFSGFSLSTAGMSVGWIRQPPGKALEWLADIWWDGKKDYNPSLKDRLTISKDTSKNQVVLKVTNMDPADTATYYCARDMIFNFYFDVWGQGTTVTVSS VL: DIQMTQSPSTLSASVGDRVTITCSASSRVGYMHWYQQKPGKAPKLLIYDTFKLSSGVPSRFSGSGSGTEFTLTISSLQPDDFATYYCFQGSGYPFTFGGGTKVEIK	0.00023	743000	0.81	0.0287	0.031		
Clone 11 (Fab) (Fab, V domains shown) VH: QVTLRESGPALVKPTQTLTLTCTFSGFSLSTPGMSVGWIRQPPGKALEWLADIWWDGKKHYNPSLKDRLTISKDTSKNQVVLKVTNMDPADTATYYCARDMIFNFYFDVWGQGTTVTVSS VL: DIQMTQSPSTLSASVGDRVTITCSPSSRVGYMHWYQQKPGKAPKLLIYDTMRLASGVPSRFSGSGSGTEFTLTISSLQPDDFATYYCFQGSGYPFTFGGGTKVEIK	0.000717	571000	20.9	> 1	> 1		
Clone 14 (Fab) (Fab, V domains shown) VH: QVTLRESGPALVKPTQTLTLTCTFSGFSLSTAGMSVGWIRQPPGKALEWLADIWWDDKKHYNPSLKDRLTISKDTSKNQVVLKVTNMDPADTATYYCARDMIFNWYFDVWGQGTTVTVSS VL: DIQMTQSPSTLSASVGDRVTITCSPSSRVGYMHWYQQKPGKAPKLLIYDTYRHSSGVPSRFSGSGSGTEFTLTISSLQPDDFATYYCFQGSGYPFTFGGGTKVEIK	0.00025	735000	2.23	0.12	0.102		
Clone 17 (whole monoclonal antibody) (antibody, V domains shown) VH: QVTLRESGPALVKPTQTLTLTCTFSGFSLSTAGMSVGWIRQPPGKALEWLADIWWDDKKDYNPSLKSRLTISKDTSKNQVVLKVTNMDPADTATYYCARSMITNFYFDVWGAGTTVTVSS VL: DIQMTQSPSTLSASVGDRVTITCSASSSVGYMHWYQQKPGKAPKLLIYDTFKLASGVPSRFSGSGSGTEFTLTISSLQPDDFATYYCFQGSFYPFTFGGGTKLEIK			2.7			0.000249	109000
Clone 12 (Fab) (Fab, V domains shown) VH: QVTLRESGPALVKPTQTLTLTCTFSGFSLSTAGMSVGWIRQPPGKALEWLADIWWDGKKHYNPSLKDRLTISKDTSKNQVVLKVTNMDPADTATYYCARDMIFNFYFDVWGQGTTVTVSS VL: DIQMTQSPSTLSASVGDRVTITCSLSSRVGYMHWYQQKPGKAPKLLIYDTFKLSSGVPSRFSGSGSGTEFTLTISSLQPDDFATYYCFQGSGYPFTFGGGTKVEIK	0.000453	790000	3.24	0.157	0.125		
Clone 8 (Fab) (Fab, V domains shown) VH: QVTLRESGPALVKPTQTLTLTCTFSGFSLSTAGMSVGWIRQPPGKALEWLADIWWDDKKDYNPSLKSRLTISKDTSKNQVVLKVTNMDPADTATYYCARDMITNFYFDVWGQGTTVTVSS VL: DIQMTQSPSTLSASVGDRVTITCSASSSVGYMHWYQQKPGKAPKLLIYDTFRLASGVPSRFSGSGSGTEFTLTISSLQPDDFATYYCFQGSGYPFTFGGGTKVEIK	0.000273	375000	2.67				
MEDI-493 (clone 16), IgG1 (COR)/kappa (K102) humanized MAb (antibody, V domains shown) VH: QVTLRESGPALVKPTQTLTLTCTFSGFSLSTSGMSVGWIRQPPGKALEWLADIWWDDKKDYNPSLKSRLTISKDTSKNQVVLKVTNMDPADTATYYCARSMITNWYFDVWGAGTTVTVSS VL: DIQMTQSPSTLSASVGDRVTITCKCQLSVGYMHWYQQKPGKAPKLLIYDTSKLASGVPSRFSGSGSGTEFTLTISSLQPDDFATYYCFQGSGYPFTFGGGTKLEIK			6.12	0.453	0.535	0.000735	204000
